Laboratory results: US20240117049A1 (Hoffmann-La Roche, published 2024)
Read-outs that look alike come from different tables or passages of the source.

T1: human OX40 on cells (human, UniProt P43489 29-277)
T1 sequence: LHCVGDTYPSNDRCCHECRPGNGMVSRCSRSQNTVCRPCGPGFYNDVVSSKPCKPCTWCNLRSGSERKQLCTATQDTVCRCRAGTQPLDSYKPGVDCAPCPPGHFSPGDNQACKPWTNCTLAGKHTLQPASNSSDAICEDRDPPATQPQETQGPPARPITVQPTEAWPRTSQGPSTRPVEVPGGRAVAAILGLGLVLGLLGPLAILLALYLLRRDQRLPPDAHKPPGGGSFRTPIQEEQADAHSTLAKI

T2: biotinylated human OX40 (human, UniProt P43489 29-214, limits assumed, biotinylated)
T2 sequence: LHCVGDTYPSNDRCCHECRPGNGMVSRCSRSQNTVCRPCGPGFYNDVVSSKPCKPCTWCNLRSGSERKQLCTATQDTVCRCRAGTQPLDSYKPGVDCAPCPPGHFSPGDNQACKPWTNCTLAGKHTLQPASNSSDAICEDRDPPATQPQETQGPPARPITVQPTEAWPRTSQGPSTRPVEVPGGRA


Key:
[1] = target: T3, biotinylated recombinant human FAP (human, UniProt Q12884 27-760, biotinylated); test: SPR (Biacore)
T3 construct: the Biacore paragraphs only say biotinylated (recombinant) human FAP; also called biotinylated human FAP; recombinant huFAP

human OX40 on cells [2] = target: T1, human OX40 on cells; test: cell-based or functional assay
human OX40 on cells [3] = target: T1, human OX40 on cells; test: cell-based or functional assay; remark: listed apart in the source
human OX40 on cells [4] = target: T1, human OX40 on cells; test: flow cytometry, activated human CD4+ T cells
human OX40 on cells [5] = target: T1, human OX40 on cells; test: cell-based or functional assay; remark: listed apart in the source
[6] = target: T4, FcRn (biotinylated, coupled to streptavidin-sepharose); test: FcRn affinity chromatography, pH gradient, retention compared to standards
T4 construct: also called neonatal Fc receptor

human OX40 on cells [7] = target: T1, human OX40 on cells; test: cell-based or functional assay; remark: listed apart in the source
biotinylated human OX40 = target: T2, biotinylated human OX40; test: SPR, stressed against unstressed sample, normalised to anti-hu IgG capture
[8] = target: T3, biotinylated recombinant human FAP; test: as above
human OX40 on cells [9] = target: T1, human OX40 on cells; test: cell-based or functional assay; remark: listed apart in the source
human OX40 on cells [10] = target: T1, human OX40 on cells; test: cell-based or functional assay; remark: listed apart in the source
[11] = target: T5, human Fibroblast Activation Protein (FAP) expressed on cells (human, UniProt Q12884 1-760); test: flow cytometry, NIH/3T3-huFAP clone 19 cells
T5 construct: cell surface FAP on transfected HEK cells or NIH/3T3-huFAP clone 19 fibroblasts; also called huFAP; human FAP-transfected HEK cells

| Kd [1] | T ½ [1] | koff [1] | kon [1] | EC50 of NFκB activation, HeLa_hOx40_NFkB_Luc1, w/ hu FAP+ fibroblasts (human OX40 on cells [2]) | EC50 of NFκB activation, HeLa_hOx40_NFkB_Luc1, w/o crosslinking (human OX40 on cells [2]) | AUC of CD25 upregulation compared to reference compound [%] (human OX40 on cells [3]) | EC50 (human OX40 on cells [4]) | EC50 of suppression of TGFβ-induced FoxP3 (FoxP3 MFI) on CD4+ CD25+ Treg cells, FAP-coated beads (human OX40 on cells [5]) | FcRn affinity (relative retention) [6] | EC50 of CD25 upregulation on CD4+ T cells, suboptimal TCR stimulation of human PBMC with FAP+ fibroblasts (human OX40 on cells [7]) | binding activity [%] after 2 weeks at pH 6.0/40°C (biotinylated human OX40) | binding activity [%] after 2 weeks at pH 7.4/37°C (biotinylated human OX40) | binding activity [%] after 2 weeks at pH 6.0/40°C [8] | binding activity [%] after 2 weeks at pH 7.4/37°C [8] | EC50 of increased CEACAM5 TCB mediated cytokine secretion of human PBMC with FAP+ fibroblasts (human OX40 on cells [9]) | EC50 of NFκB activation, HeLa_hOx40_NFkB_Luc1, w/ hu FAP+ fibroblasts (human OX40 on cells [10]) | EC50 of NFκB activation, HeLa_hOx40_NFkB_Luc1, w/o crosslinking (human OX40 on cells [10]) | EC50 [11] | EC50 of CD25 upregulation on CD4+ T cells, suboptimal TCR stimulation of human PBMC with FAP+ fibroblasts (human OX40 on cells [3]) | Binder |
| --- | --- | --- | --- | --- | --- | --- | --- | --- | --- | --- | --- | --- | --- | --- | --- | --- | --- | --- | --- | --- |
| – | – | – | – | – | – | – | 1.47 nM | 0.25 nM | -0.1 | 0.003 nM | 100% | 100% | 98% | 96% | 0.058 nM | 0.2 nM | 0.8 nM | 1.71 nM | – | P1AF6455 OX40(CLC563) x FAP (1G1a_EPKSCS) (3 + 1) C-terminal crossfab fusion (bispecific antibody, human IgG1, kappa, L234A L235A, also called CLC-563, S-variant 3+1; C2) heavy 1: not shown heavy 2: not shown light 1: not shown light 2: EIVLTQSPATLSLSPGERATLSCRASESVDNYGLSFINWFQQKPGQAPRLLIYGTSNRGSGIPARFSGSGSGTDFTLTISSLEPEDFAVYFCQQSNEVPYTFGGGTKVEIKSSASTKGPSVFPLAPSSKSTSGGTAALGCLVKDYFPEPVTVSWNSGALTSGVHTFPAVLQSSGLYSLSSVVTVPSSSLGTQTYICNVNHKPSNTKVDKKVEPKSCS |
| – | – | – | – | 0.31 nM | 3.94 nM | 100% | 0.69 nM | – | -0.22 | – | > 90% | > 90% | > 90% | > 90% | – | – | – | 2.7 nM | 0.02 nM | P1AE8875 OX40(MOXR0916) x FAP (1G1a) (3 + 1) C-terminal crossfab fusion (bispecific antibody, human IgG1, kappa, L234A L235A, also called MOX0916 3+1) heavy 1: not shown heavy 2: EVQLVQSGAEVKKPGASVKVSCKASGYTFTDSYMSWVRQAPGQGLEWIGDMYPDNGDSSYNQKFRERVTITRDTSTSTAYLELSSLRSEDTAVYYCVLAPRWYFSVWGQGTLVTVSSASTKGPSVFPLAPSSKSTSGGTAALGCLVEDYFPEPVTVSWNSGALTSGVHTFPAVLQSSGLYSLSSVVTVPSSSLGTQTYICNVNHKPSNTKVDEKVEPKSCGGGGSGGSGGEVQLVQSGAEVKKPGASVKVSCKASGYTFTDSYMSWVRQAPGQGLEWIGDMYPDNGDSSYNQKFRERVTITRDTSTSTAYLELSSLRSEDTAVYYCVLAPRWYFSVWGQGTLVTVSSASTKGPSVFPLAPSSKSTSGGTAALGCLVEDYFPEPVTVSWNSGALTSGVHTFPAVLQSSGLYSLSSVVTVPSSSLGTQTYICNVNHKPSNTKVDEKVEPKSCDKTHTCPPCPAPEAAGGPSVFLFPPKPKDTLMISRTPEVTCVVVDVSHEDPEVKFNWYVDGVEVHNAKTKPREEQYNSTYRVVSVLTVLHQDWLNGKEYKCKVSNKALGAPIEKTISKAKGQPREPQVCTLPPSRDELTKNQVSLSCAVKGFYPSDIAVEWESNGQPENNYKTTPPVLDSDGSFFLVSKLTVDKSRWQQGNVFSCSVMHEALHNHYTQKSLSLSPG light 1: not shown light 2: EIVLTQSPATLSLSPGERATLSCRASESVDNYGLSFINWFQQKPGQAPRLLIYGTSNRGSGIPARFSGSGSGTDFTLTISSLEPEDFAVYFCQQSNEVPYTFGGGTKVEIKSSASTKGPSVFPLAPSSKSTSGGTAALGCLVKDYFPEPVTVSWNSGALTSGVHTFPAVLQSSGLYSLSSVVTVPSSSLGTQTYICNVNHKPSNTKVDKKVEPKSC |
| – | – | – | – | 0.19 nM | – | 106% | 0.9 nM | – | 0.15 | – | > 90% | > 90% | > 90% | > 90% | – | – | – | 1.78 nM | 0.01 nM | P1AE8872 OX40(MOXR0916) x FAP (1G1a) (2 + 1) C-terminal crossfab fusion (bispecific antibody, human IgG1, kappa, L234A L235A, also called MOX0916 2+1) heavy 1: not shown heavy 2: EVQLVQSGAEVKKPGASVKVSCKASGYTFTDSYMSWVRQAPGQGLEWIGDMYPDNGDSSYNQKFRERVTITRDTSTSTAYLELSSLRSEDTAVYYCVLAPRWYFSVWGQGTLVTVSSASTKGPSVFPLAPSSKSTSGGTAALGCLVEDYFPEPVTVSWNSGALTSGVHTFPAVLQSSGLYSLSSVVTVPSSSLGTQTYICNVNHKPSNTKVDEKVEPKSCDKTHTCPPCPAPEAAGGPSVFLFPPKPKDTLMISRTPEVTCVVVDVSHEDPEVKFNWYVDGVEVHNAKTKPREEQYNSTYRVVSVLTVLHQDWLNGKEYKCKVSNKALGAPIEKTISKAKGQPREPQVCTLPPSRDELTKNQVSLSCAVKGFYPSDIAVEWESNGQPENNYKTTPPVLDSDGSFFLVSKLTVDKSRWQQGNVFSCSVMHEALHNHYTQKSLSLSPG light 1: not shown light 2: EIVLTQSPATLSLSPGERATLSCRASESVDNYGLSFINWFQQKPGQAPRLLIYGTSNRGSGIPARFSGSGSGTDFTLTISSLEPEDFAVYFCQQSNEVPYTFGGGTKVEIKSSASTKGPSVFPLAPSSKSTSGGTAALGCLVKDYFPEPVTVSWNSGALTSGVHTFPAVLQSSGLYSLSSVVTVPSSSLGTQTYICNVNHKPSNTKVDKKVEPKSC |

Continued, binder first:

| Binder | Kd [1] | T ½ [1] | koff [1] | kon [1] | EC50 of NFκB activation, HeLa_hOx40_NFkB_Luc1, w/ hu FAP+ fibroblasts (human OX40 on cells [2]) | EC50 of NFκB activation, HeLa_hOx40_NFkB_Luc1, w/o crosslinking (human OX40 on cells [2]) | AUC of CD25 upregulation compared to reference compound [%] (human OX40 on cells [3]) | EC50 (human OX40 on cells [4]) | EC50 of suppression of TGFβ-induced FoxP3 (FoxP3 MFI) on CD4+ CD25+ Treg cells, FAP-coated beads (human OX40 on cells [5]) | FcRn affinity (relative retention) [6] | EC50 of CD25 upregulation on CD4+ T cells, suboptimal TCR stimulation of human PBMC with FAP+ fibroblasts (human OX40 on cells [7]) | binding activity [%] after 2 weeks at pH 6.0/40°C (biotinylated human OX40) | binding activity [%] after 2 weeks at pH 7.4/37°C (biotinylated human OX40) | binding activity [%] after 2 weeks at pH 6.0/40°C [8] | binding activity [%] after 2 weeks at pH 7.4/37°C [8] | EC50 of increased CEACAM5 TCB mediated cytokine secretion of human PBMC with FAP+ fibroblasts (human OX40 on cells [9]) | EC50 of NFκB activation, HeLa_hOx40_NFkB_Luc1, w/ hu FAP+ fibroblasts (human OX40 on cells [10]) | EC50 of NFκB activation, HeLa_hOx40_NFkB_Luc1, w/o crosslinking (human OX40 on cells [10]) | EC50 [11] | EC50 of CD25 upregulation on CD4+ T cells, suboptimal TCR stimulation of human PBMC with FAP+ fibroblasts (human OX40 on cells [3]) |
| --- | --- | --- | --- | --- | --- | --- | --- | --- | --- | --- | --- | --- | --- | --- | --- | --- | --- | --- | --- | --- |
| P1AE1702_Fab, humanized anti-FAP Fab VH2G2a/VL2G2a (Fab, V domains shown) VH: EVQLLESGGGLVQPGGSLRLSCAASGYTLTDYNMDWVRQAPGKGLEWVGDIYPNTGGTIYNQKFKGRFTISIDKSKNTAYLQMNSLRAEDTAVYYCTRFRGIHYAMDYWGQGTTVTVSS VL: DIQMTQSPSSLSASVGDRVTITCRASESVDNYGLSFINWFQQKPGQPPKLLIYGTSNRGSGVPSRFSGSGSGTDFTLTISSLQPEDFAMYFCQQSNEVPYTFGGGTKVEIK | 0.213 nM | 1.8 h | 0.000107 s⁻¹ | 502000 M⁻¹ s⁻¹ | – | – | – | – | – | – | – | – | – | – | – | – | – | – | – | – |
| P1AD3690, untargeted tetravalent OX40 (49B4) antigen binding molecule (4+0) (antibody, human IgG1, kappa, L234A L235A) heavy: not shown light: DIQMTQSPSTLSASVGDRVTITCRASQSISSWLAWYQQKPGKAPKLLIYDASSLESGVPSRFSGSGSGTEFTLTISSLQPDDFATYYCQQYSSQPYTFGQGTKVEIKRTVAAPSVFIFPPSDEQLKSGTASVVCLLNNFYPREAKVQWKVDNALQSGNSQESVTEQDSKDSTYSLSSTLTLSKADYEKHKVYACEVTHQGLSSPVTKSFNRGEC | – | – | – | – | 0.18 nM | 0.23 nM | 13% | – | – | – | – | – | – | – | – | – | – | – | – | – |
